Consider 2 molecules from paper PMC3961188, “The bHLH Factors Extramacrochaetae and Daughterless Control Cell Cycle in Drosophila Imaginal Discs through the Transcriptional Regulation of the cdc25 Phosphatase string”.

Data set [1] concerns the target T1, Daughterless (Da), GST fusion (Drosophila melanogaster, UniProt P11420 1-710).
T1 sequence: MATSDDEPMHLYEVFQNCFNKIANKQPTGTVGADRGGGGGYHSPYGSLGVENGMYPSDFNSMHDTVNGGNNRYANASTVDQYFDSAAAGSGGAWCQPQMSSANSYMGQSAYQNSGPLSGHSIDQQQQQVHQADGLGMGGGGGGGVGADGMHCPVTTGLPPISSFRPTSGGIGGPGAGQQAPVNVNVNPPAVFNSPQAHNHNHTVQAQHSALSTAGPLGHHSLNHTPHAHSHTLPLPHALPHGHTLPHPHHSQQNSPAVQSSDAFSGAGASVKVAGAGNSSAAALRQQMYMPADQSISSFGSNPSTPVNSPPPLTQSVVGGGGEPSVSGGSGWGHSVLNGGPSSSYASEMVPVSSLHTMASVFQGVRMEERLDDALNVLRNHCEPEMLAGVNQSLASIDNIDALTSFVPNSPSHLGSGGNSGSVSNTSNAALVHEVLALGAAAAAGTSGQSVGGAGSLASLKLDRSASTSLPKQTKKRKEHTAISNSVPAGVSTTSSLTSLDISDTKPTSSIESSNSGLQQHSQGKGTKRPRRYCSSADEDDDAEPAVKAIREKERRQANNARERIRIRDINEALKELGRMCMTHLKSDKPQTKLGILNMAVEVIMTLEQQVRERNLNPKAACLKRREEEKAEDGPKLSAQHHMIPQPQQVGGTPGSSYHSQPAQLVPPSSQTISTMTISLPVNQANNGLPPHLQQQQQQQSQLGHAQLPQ
In words: EMSA; Cy5 and Cy3 versions of the probe; not stated in the material (EMSA buffer, salt, pH and temperature not given). To be noted: protein: recombinant; tags: N-terminal GST (pDEST 15); chain copies: 2; blunt. In general terms: A gel shift assay detects complexes by their altered migration in electrophoresis.

For data set [2], the target named is T1, Daughterless (Da), GST fusion. Description: EMSA; direct Cy5 probe; not stated in the material (EMSA buffer, salt, pH and temperature not given). To be noted: protein: recombinant; tags: N-terminal GST (pDEST 15); chain copies: 2; blunt.

B1: stg prom (cy5 / cy3) (dsDNA)
DNA 1: TAGCTCATCAGCTGATCGTGA
DNA 2: TCACGATCAGCTGATGAGCTA
For B1, in data set [1], the binding result was “binds”.

B2: stg prom* (cy5) (dsDNA)
DNA 1: TAGCTCATACTAGTATCGTGA
DNA 2: TCACGATACTAGTATGAGCTA
Take B2: in data set [2], the binding result is “no binding”.
